The target in the test is T1, Ac-PYY(PEG3-Dig) (N-terminal acetyl; Lys 2 side chain carries PEG3-digoxigenin (digoxigenin-3-carboxymethyl on 12-amino-4,7,10-trioxadodecanoic acid); Pqa at position 3; N-methyl-Arg at position 14; C-terminal amide).
T1 construct: also called DIG-PYY; Dig-PYY
T1 peptide: IKXRHYLNWVTRQXY
Description: size exclusion chromatography and SEC-MALS of the non-covalent complex. A general note: SEC sorts molecules by how far they enter the pores of the column.
Description: After completion of the complexation reaction, the complexes were purified by size exclusion chromatography via a Superdex 200 26/60 GL column (320 ml) in 20 mM histidine, 140 mM NaCl, at pH 6.0 at a flow rate of 2.5 ml/min. […] Polypeptide and antibody were incubated for 1.5 hrs. at room temperature. The excess of polypeptide was removed by size exclusion chromatography via a Superose 6 10/300 GL column in 20 mM histidine, 140 mM NaCl, at pH 6.0 at a flow rate of 0.5 ml/min.
For SEC-MALS analysis, 100-500 μg of the respective sample was applied to a Superdex 200 10/300 GL size exclusion column with a flow rate of 0.25-0.5 ml/min with 1×PBS pH 7.4 as mobile phase. Light scattering was detected with a Wyatt miniDawn TREOS/QELS detector, the refractive index was measured with a Wyatt Optilab rEX-detector. Resulting data was analyzed using the software ASTRA (version 5.3.4.14).

B1: murine anti-digoxigenin antibody (hybridoma-derived) (antibody, mouse IgG1, V domains shown)
VH: EVQLVESGGGLVKPGGSLKLSCAVSGFTFSDYAMSWIRQTPENRLEWVASINIGATYAYYPDSVKGRFTISRDNAKNTLFLQMSSLGSEDTAMYYCARPGSPYEYDKAYYSMAYWGPGTSVTVSS
VL: DVQMTQSTSSLSASLGDRVTISCRASQDIKNYLNWYQQKPGGTVKLLIYYSSTLLSGVPSRFSGRGSGTDFSLTITNLEREDIATYFCQQSITLPPTFGGGTKLEIK
notes: also called murine hybridoma-derived antibody
With B1, the binding result was “binds”.

For the origin of these results see patent publication US20200164064A1 (Hoffmann-La Roche, published 2020).
